Experimental data taken from patent US20190241648A1 (STATEN BIOTECHNOLOGY B V, published 2019).
Ends that are not written are not given here.

Tests used:
Experiment in all cases: peptide microarray
ApoC3 peptide … D45C = biological target: T1, ApoC3 peptide … D45C (human, not fully specified (bridges); also: cyclic constrained)
T1 peptide: ARGWVTCGFSSLK
Source text: (§1) Amino acids G41 and G46 were highly conserved; substitution of G41 by E, N or Q caused a decrease of spot intensities by ˜70% or higher, whereas exchange of G46 by N was hardly tolerated and resulting in 90% reduced spot intensities. […] Amino acid positions V43, D45 and K51 were also well conserved with a clear preference for the wild type amino acids and a certain tolerance particularly for conservative exchanges by Y, F and I (V43), A, E and K (D45) as well as by R (K51). […] Replacement of V43 by Y, however, increased spot intensity by two fold. Amino acid positions W42 and 48S were poorly conserved or even variable; both positions were susceptible for only a number of amino acid exchanges, and exchange by F, S and T (W42) or by E (S48) even caused a two- to three-fold increase of spot intensity. Amino acid positions A39 and R40 were variable.
(§2) Pre: staining of one of the ApoC3 peptide microarrays was done with the secondary antibody goat anti-human IgG (Fe) DyLight680 (1:5000) and control antibody mouse monoclonal anti-HA (12CA5) DyLight800 (1:2000) to investigate background interactions of the secondary antibody with the antigen-derived peptides that could interfere with the main assays. Subsequent incubation of other ApoC3 peptide microarrays with antibody samples was followed by staining with secondary and control antibodies as well as read-out at scanning intensities of 7/7 (red/green). The additional HA peptides framing the peptide arrays were stained as internal quality control to confirm the assay quality and the peptide microarray integrity.

ApoC3 peptide … A39D = biological target: T2, ApoC3 peptide … A39D (human, cyclic constrained)
T2 peptide: DRGWVTDGFSSLK
Source text: as §1, §2

ApoC3 peptide … A39E = biological target: T3, ApoC3 peptide … A39E (human, cyclic constrained)
T3 peptide: ERGWVTDGFSSLK
Source text: as §1, §2

ApoC3 peptide … S48E = ApoC3 peptide … S48E (human, cyclic constrained)
Source text: as §1, §2

ApoC3 peptide … S49E = biological target: T4, ApoC3 peptide … S49E (human, cyclic constrained)
T4 peptide: ARGWVTDGFSELK
Source text: as §1, §2

ApoC3 peptide … L50F = biological target: T5, ApoC3 peptide … L50F (human, not fully specified; cyclic constrained)
T5 peptide: ARGWVTDGFSSFK
Source text: as §1, §2

ApoC3 peptide … A39G = biological target: T6, ApoC3 peptide … A39G (human, cyclic constrained)
T6 peptide: GRGWVTDGFSSLK
Source text: as §1, §2

ApoC3 peptide … V43G = biological target: T7, ApoC3 peptide … V43G (human, not fully specified; cyclic constrained)
T7 peptide: ARGWGTDGFSSLK
Source text: as §1, §2

ApoC3 peptide … T44H = biological target: T8, ApoC3 peptide … T44H (human, not fully specified (bridges); also: cyclic constrained)
T8 peptide: ARGWVHDGFSSLK
Source text: as §1, §2

ApoC3 peptide … G46H = biological target: T9, ApoC3 peptide … G46H (human, not fully specified (bridges); also: cyclic constrained)
T9 peptide: ARGWVTDHFSSLK
Source text: as §1, §2

ApoC3 peptide … F47H = biological target: T10, ApoC3 peptide … F47H (human, not fully specified (bridges); also: cyclic constrained)
T10 peptide: ARGWVTDGHSSLK
Source text: as §1, §2

ApoC3 peptide … W42I = biological target: T11, ApoC3 peptide … W42I (human, not fully specified (bridges); also: cyclic constrained)
T11 peptide: ARGIVTDGFSSLK
Source text: as §1, §2

ApoC3 peptide … F47I = biological target: T12, ApoC3 peptide … F47I (human, not fully specified (bridges); also: cyclic constrained)
T12 peptide: ARGWVTDGISSLK
Source text: as §1, §2

ApoC3 peptide … S48I = ApoC3 peptide … S48I (human, cyclic constrained)
Source text: as §1, §2

ApoC3 peptide … G46K = biological target: T13, ApoC3 peptide … G46K (human, not fully specified (bridges); also: cyclic constrained)
T13 peptide: ARGWVTDKFSSLK
Source text: as §1, §2

ApoC3 peptide … A39L = biological target: T14, ApoC3 peptide … A39L (human, cyclic constrained)
T14 peptide: LRGWVTDGFSSLK
Source text: as §1, §2

ApoC3 peptide … T44L = biological target: T15, ApoC3 peptide … T44L (human, not fully specified (bridges); also: cyclic constrained)
T15 peptide: ARGWVLDGFSSLK
Source text: as §1, §2

ApoC3 peptide … D45M = biological target: T16, ApoC3 peptide … D45M (human, cyclic constrained)
T16 peptide: ARGWVTMGFSSLK
Source text: as §1, §2

ApoC3 peptide … S48N = ApoC3 peptide … S48N (human, cyclic constrained)
Source text: as §1, §2

ApoC3 peptide … V43P = biological target: T17, ApoC3 peptide … V43P (human, not fully specified (bridges); also: cyclic constrained)
T17 peptide: ARGWPTDGFSSLK
Source text: as §1, §2

ApoC3 peptide … K51P = biological target: T18, ApoC3 peptide … K51P (human, not fully specified; cyclic constrained)
T18 peptide: ARGWVTDGFSSLP
Source text: as §1, §2

ApoC3 peptide … S49Q = biological target: T19, ApoC3 peptide … S49Q (human, cyclic constrained)
T19 peptide: ARGWVTDGFSQLK
Source text: as §1, §2

ApoC3 peptide … K51Q = biological target: T20, ApoC3 peptide … K51Q (human, not fully specified; cyclic constrained)
T20 peptide: ARGWVTDGFSSLQ
Source text: as §1, §2

ApoC3 peptide … A39R = biological target: T21, ApoC3 peptide … A39R (human, not fully specified (bridges); also: cyclic constrained)
T21 peptide: RRGWVTDGFSSLK
Source text: as §1, §2

ApoC3 peptide … W42R = biological target: T22, ApoC3 peptide … W42R (human, not fully specified (bridges); also: cyclic constrained)
T22 peptide: ARGRVTDGFSSLK
Source text: as §1, §2

ApoC3 peptide … G46R = biological target: T23, ApoC3 peptide … G46R (human, thioether (positions not given here); also: cyclic constrained)
T23 peptide: ARGWVTDRFSSLK
Source text: as §1, §2

ApoC3 peptide … F47S = biological target: T24, ApoC3 peptide … F47S (human, also: cyclic constrained)
T24 peptide: ARGWVTDGSSSLK
Source text: as §1, §2

ApoC3 peptide … R40T = biological target: T25, ApoC3 peptide … R40T (human, not fully specified (bridges); also: cyclic constrained)
T25 peptide: ATGWVTDGFSSLK
Source text: as §1, §2

ApoC3 peptide … S48V = ApoC3 peptide … S48V (human, cyclic constrained)
Source text: as §1, §2

ApoC3 peptide … V43Y = biological target: T26, ApoC3 peptide … V43Y (human, not fully specified (bridges); also: cyclic constrained)
T26 peptide: ARGWYTDGFSSLK
Source text: as §1, §2

ApoC3 peptide … G46Y = biological target: T27, ApoC3 peptide … G46Y (human, thioether (positions not given here); also: cyclic constrained)
T27 peptide: ARGWVTDYFSSLK
Source text: as §1, §2

B1: anti-ApoC3 antibody 14C7 (antibody, V domains shown)
VH: QVQVQESGPGLVKPSQTLSLTCTVSGGSITTNSYYWSWIRQPPGKGLEWMGAIDYSGDTYYSPSLKSRTSISRDTSKNQFTLQLTSVTPEDTAVYYCVSRIPTGEYWGQGTQVTVSS
VL: QTVVTQEPSLSVSPGGTVTLTCGLNSGSVTSSNYPDWYQQTPGQAPRLLIYNTNSRHSGVPSRFSGSISGNKAALTITGAQPEDEADYYCALYMGSDSVVFGGGTHLTVL
notes: it was detected with goat anti-human IgG (Fc); also called mAb 14C7; llama antibody 14C7
% of binding to wild-type peptide (ApoC3 peptide … D45C): 11.2%
% of binding to wild-type peptide (ApoC3 peptide … A39D): 50.7%
% of binding to wild-type peptide (ApoC3 peptide … A39E): 98.9%
% of binding to wild-type peptide (ApoC3 peptide … S48E): 290%
% of binding to wild-type peptide (ApoC3 peptide … S49E): 0%
% of binding to wild-type peptide (ApoC3 peptide … L50F): 56.6%
% of binding to wild-type peptide (ApoC3 peptide … A39G): 93%
% of binding to wild-type peptide (ApoC3 peptide … V43G): 0.12%
% of binding to wild-type peptide (ApoC3 peptide … T44H): 0.92%
% of binding to wild-type peptide (ApoC3 peptide … G46H): 1.81%
% of binding to wild-type peptide (ApoC3 peptide … F47H): 0%
% of binding to wild-type peptide (ApoC3 peptide … W42I): 27.9%
% of binding to wild-type peptide (ApoC3 peptide … F47I): 0%
% of binding to wild-type peptide (ApoC3 peptide … S48I): 23.6%
% of binding to wild-type peptide (ApoC3 peptide … G46K): 0.24%
% of binding to wild-type peptide (ApoC3 peptide … A39L): 77.5%
% of binding to wild-type peptide (ApoC3 peptide … T44L): 0.5%
% of binding to wild-type peptide (ApoC3 peptide … D45M): 21%
% of binding to wild-type peptide (ApoC3 peptide … S48N): 48.5%
% of binding to wild-type peptide (ApoC3 peptide … V43P): 1.86%
% of binding to wild-type peptide (ApoC3 peptide … K51P): 0.24%
% of binding to wild-type peptide (ApoC3 peptide … S49Q): 0.33%
% of binding to wild-type peptide (ApoC3 peptide … K51Q): 5.47%
% of binding to wild-type peptide (ApoC3 peptide … A39R): 89.4%
% of binding to wild-type peptide (ApoC3 peptide … W42R): 141%
% of binding to wild-type peptide (ApoC3 peptide … G46R): 0.3%
% of binding to wild-type peptide (ApoC3 peptide … F47S): 0%
% of binding to wild-type peptide (ApoC3 peptide … R40T): 38.7%
% of binding to wild-type peptide (ApoC3 peptide … S48V): 45.3%
% of binding to wild-type peptide (ApoC3 peptide … V43Y): 230%
% of binding to wild-type peptide (ApoC3 peptide … G46Y): 0%
